Experimental data reported in the RNAGym collection of RNA variant scans (doi:10.7554/elife.80360).

B1: HDV Ribozyme (parent)
chain: GGCCGGCAUGGUCCCAGCCUCCUCGCUGGCGCCGGCUGGGCAACAUUCCGAGGGGACCGUCCCCUCGGUAAUGGCGAAUGGGACCCA

Variants of: B1
Test: self-cleavage, relative activity (ratio to wild type); higher = more cleavage; co-transcriptional

| Variant | self-cleavage |
| --- | --- |
| C19A G67A | 0.0941 |
| C33A U72C | 0.151 |
| C3G G52U | 0.691 |
| A16U U79G | 1.13 |
| A16G A87U | 0.939 |
| G1A G38A | 0.0332 |
| G5C | 0.213 |
| G17A U47G | 0.657 |
| U79G G80C | 0.277 |
| C36G U47C | 0.128 |
| G10U C41A | 0.892 |
| A56C U60C | 0.98 |
| C19G U37G | 0.111 |
| G11U G40C | 0.0181 |
| A8G C49A | 0.939 |
| G11C A70C | 0.32 |
| C36A G39A | 0.113 |
| C19U C49U | 0.131 |
| G39C C62A | 0.244 |
| U23G C75G | 0.111 |
| A51C G53U | 0.69 |
| A51G U72G | 0.615 |
| A8G G52A | 0.719 |
| U9C A42U | 0.767 |

| Variant | self-cleavage |
| --- | --- |
| G1A G59A | 0.0573 |
| C63U G67A | 0.933 |
| A51G G82A | 0.125 |
| U12G C21U | 0.123 |
| C15G C85G | 0.196 |
| C49A G55A | 0.816 |
| C30U G35C | 0.185 |
| C32G U37G | 0.0554 |
| C19G U72G | 0 |
| A78G G82A | 0.365 |
| U9G C14G | 1.2 |
| C36U U37G | 0.166 |
| G59C U69C | 1.23 |
| G6U A8G | 0.346 |
| U47G C63G | 0.415 |
| C36G C41A | 0.248 |
| G6A U46A | 0.208 |
| G38C C41A | 0.612 |
| U12C U46A | 0 |
| C36G A77C | 0 |
| C7U C36G | 0.104 |
| A16U G25U | 0.166 |
| G1U C66G | 0.211 |
| C22G C75G | 0.181 |

| Variant | self-cleavage |
| --- | --- |
| G76U A78G | 1.34 |
| A16C C84U | 0.727 |
| A16G C86U | 1.2 |
| G39A A42C | 0 |
| C66G G81U | 0.214 |
| C41U C57A | 0.986 |
| C3U G53A | 1 |
| A70G A78U | 0.151 |
| G50A C62A | 0.694 |
| A16G G67A | 0.886 |
| C24G G35U | 0 |
| A16C G80C | 0.201 |
| C7G C86U | 0.383 |
| G1U C15A | 0.302 |
| C32U A87C | 0.795 |
| C86U | 0.935 |
| A8G G28A | 0.166 |
| G2A A70G | 0.0511 |
| A8G C19G | 0.0594 |
| A8U C61U | 0.739 |
| G1A C18G | 0 |
| C26A C57U | 0.959 |
| C57U C84G | 0.673 |
| G6U G52A | 0.739 |

| Variant | self-cleavage |
| --- | --- |
| C24G U37C | 0.119 |
| G5U G52C | 0.475 |
| C75U C84U | 0.0767 |
| C14U C41G | 1.06 |
| A42U U46A | 0.443 |
| G50U C84A | 0.974 |
| G11U C75U | 0.0422 |
| C15A G40U | 0.352 |
| G73A A83C | 0.198 |
| U37C C61A | 1.2 |
| C15G C62U | 0.665 |
| C18G G59C | 0.26 |
| C26A C61A | 0.865 |
| A43C C63U | 0.529 |
| G34U G73U | 0.0455 |
| G67U C75U | 0.104 |
| C15A A43U | 0.212 |
| G17A A87U | 0.708 |
| C15U G55A | 0.889 |
| C22U G50C | 0.671 |
| U9G A70C | 0.886 |
| G31C C48G | 0.227 |
| G17C A51U | 0.443 |
| C48A U69A | 0.814 |

| Variant | self-cleavage |
| --- | --- |
| C49U G80C | 0.143 |
| C75G C86G | 0 |
| C41U C75A | 0.0665 |
| C33U C63A | 0.716 |
| U20A C85U | 0.0405 |
| C63A G73C | 0.332 |
| G80A A83C | 0.135 |
| G28A A87U | 0.0932 |
| C64U G80C | 0.158 |
| C33G G39A | 0.0997 |
| C15A G28A | 0.136 |
| C44U A77C | 0.277 |
| C49G U60A | 0.923 |
| C7A G74A | 0.026 |
| A42C C63U | 0.19 |
| G31A C84G | 0.119 |
| G29A G59A | 0.179 |
| G29A G73C | 0.0639 |
| C26G U37G | 0.111 |
| G10U C75U | 0.0678 |
| C33G G35A | 0.0604 |
| C4U U60G | 0.939 |
| G50A G52A | 0.888 |
| C19U A78U | 0.111 |

| Variant | self-cleavage |
| --- | --- |
| A42C G80C | 0.101 |
| A70U U79G | 0.617 |
| C19U C85G | 0.102 |
| G11C A43U | 0.0583 |
| C36A G76C | 0.241 |
| C75A G81U | 0.155 |
| U23A C57U | 0.812 |
| G5C G53A | 0.162 |
| G10A G59U | 0.95 |
| G10C U23C | 0.95 |
| C24G G54U | 0.183 |
| G1A C30A | 0.0875 |
| A42C A77U | 0.369 |
| G10A U60A | 0.739 |
| C24A G53U | 0.858 |
| A8C G73U | 0.264 |
| C48U G76U | 1.15 |
| C7U C30U | 0.483 |
| G34C G80A | 0.138 |
| C18G U27A | 0.0665 |
| U12C A71G | 0.287 |
| C7G C36A | 0.111 |
| A16C A43G | 0.138 |
| C49G G50A | 0.793 |

| Variant | self-cleavage |
| --- | --- |
| U9G U69A | 0.831 |
| G67U A87U | 0.898 |
| U27A C33A | 0.256 |
| G76U A83U | 0.481 |
| C7U C19A | 0.157 |
| G55C U65C | 0.867 |
| G53C G76U | 0.967 |
| G28A C48U | 0.0997 |
| A43U A78G | 0.262 |
| G5C C61U | 0 |
| A45U G76C | 0.689 |
| C62G A71G | 0.346 |
| U12G U79A | 0.939 |
| C58U C64U | 0.987 |
| A16U U27G | 0.665 |
| G34C A45U | 0.0378 |
| U12C U60C | 0.594 |
| G17C G29A | 0.0437 |
| G5U C75U | 0.0573 |
| C13U C66A | 0.54 |
| U27A C86A | 0.733 |
| C36G A71C | 0.0475 |
| G6U U65A | 0.431 |
